Source: publication PMC3203869, “Altered Antibiotic Transport in OmpC Mutants Isolated from a Series of Clinical Strains of Multi-Drug Resistant E. coli” (PLoS ONE, 2011)

How the values were obtained:
Experiment in all cases: crystal structure; purified OmpC in detergent (0.6% HESO + 0.1% OPOE, or 1% βOG), crystals grown at 20°C or room temperature; trimer in the crystal
[1] = biological target: OmpC20 (E. coli (clinical isolate)) (UniProt P06996)
[2] = biological target: OmpC26 (E. coli (clinical isolate)) (UniProt P06996)
[3] = biological target: the molecule itself

OmpC20 (from UniProt P06996 22-367) (natural protein)
stoichiometry N [1]: 3

OmpC26 (from UniProt P06996 22-367) (natural protein)
stoichiometry N [2]: 3

B1: OmpCO6 (natural protein)
chain: AEVYNKDGNKLDLYGKVDGLHYFSDDKSVDGDQTYMRLGFKGETQVTDQLTGYGQWEYQIQGNAPESENNSWTRVAFAGLKFQDIGSFDYGRNYGVVYDVTSWTDVLPEFGGDTYGSDNFMQQRGNGFATYRNTDFFGLVDGLNFAVQYQGQNGSVSGENDPDFTGHGITNNGRKALRQNGDGVGGSITYDYEGFGVGAAVSSSKRTWDQNNTGLIGTGDRAETYTGGLKYDANNIYLAAQYTQTYNATRVGSLGWANKAQNFEAVAQYQFDFGLRPSVAYLQSKGKNLGVVAGRNYDDEDILKYVDVGATYYFNKNMSTYVDYKINLLDDNQFTRAAGINTDDIVALGLVYQF
notes: gene amplified by PCR and expressed from pHSG575; Trimer in the crystal; also called OmpC from uropathogenic E. coli O6:H1; source: E. coli strain lacking porins, plasmid pHSG575; purified (detergent extraction, POROS-HQ anion exchange, Superdex 200 gel filtration)
stoichiometry N [3]: 3
